Data taken from paper PMC12086574 (Molecular Biology of the Cell, 2025).

Target: the molecule itself
Assay: SEC

B1: His6-SEPT7G (domain or fragment)
chain: GFEFTLMVVGESGLGKSTLINSLFLTDLYSPEYPGPSHRIKKTVQVEQSKVLIKEGGVQLLLTIVDTPGFGDAVDNSNCWQPVIDYIDSKFEDYLNAESRVNRRQMPDNRVQCCLYFIAPSGHGLKPLDIEFMKRLHEKVNIIPLIAKADTLTPEECQQFKKQIMKEIQEHKIKIYEFPETDDEEENKLVKKIKDRLPLAVVGSNTIIEVNGKRVRGRQYPWGVAEVENGEHCDFTILRNMLIRTHMQDLKDVTNNVHYENYRSRKLAAVT
stoichiometry N: 2
